In patent US7094597 one finds fold stronger binding than S1 and S6 peptides data, which are given here for one substance.

This test addresses purified HLA MHC Class II molecules (human). Nature of the test: ELISA, biotinylated peptides on immobilized purified HLA class II molecules (FIG. 5). (In general: An ELISA detects its analyte on a solid surface through an enzyme-linked reagent.)

dnaJp1 peptide (…) yielded a fold stronger binding than S1 and S6 peptides above 100 fold.
